Assay results as given in patent US20040248254A1.

Biological target: IL-1Rrp1 and mouse ACPL polypeptide coexpressed in transfected cells (IL-18 receptor) (mouse)
Assay: cell-based or functional assay

Sequence of IL-1Rrp1 and mouse ACPL polypeptide coexpressed in transfected cells (IL-18 receptor) (mouse) (Q9Z2B1 15-614): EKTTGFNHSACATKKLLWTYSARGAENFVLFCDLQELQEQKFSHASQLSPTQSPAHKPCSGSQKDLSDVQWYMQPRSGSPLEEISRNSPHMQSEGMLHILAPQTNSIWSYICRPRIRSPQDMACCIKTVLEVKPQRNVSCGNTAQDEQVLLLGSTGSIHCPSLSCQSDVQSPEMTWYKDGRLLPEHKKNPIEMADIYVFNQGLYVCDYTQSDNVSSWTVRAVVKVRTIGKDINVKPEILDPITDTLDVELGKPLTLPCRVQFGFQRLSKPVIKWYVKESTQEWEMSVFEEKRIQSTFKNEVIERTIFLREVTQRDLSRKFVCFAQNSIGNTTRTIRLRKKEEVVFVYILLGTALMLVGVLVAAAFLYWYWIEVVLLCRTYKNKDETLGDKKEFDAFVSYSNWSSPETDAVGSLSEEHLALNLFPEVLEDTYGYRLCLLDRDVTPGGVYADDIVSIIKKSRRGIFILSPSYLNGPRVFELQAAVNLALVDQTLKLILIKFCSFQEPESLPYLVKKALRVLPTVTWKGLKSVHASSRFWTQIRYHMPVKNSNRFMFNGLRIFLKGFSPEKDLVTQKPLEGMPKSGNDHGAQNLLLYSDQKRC

induction of the NFkB-linked gene (NFkB-Luc luciferase reporter) in COS cells: 10 fold
induction of the NFkB-linked gene (NFkB-Luc luciferase reporter) in S49 cells: 300 fold
Substance: murine IL-18 (PeproTech) (from UniProt P70380 36-192) (ligand)
